In patent publication US9738880B2, “Lysosomal protein targeting sequence and therapeutic applications of same” (Children's Hospital Medical Center, priority 2013, dated 2017):
Residue numbers refer to the chain shown, from its start. In names and notes the source's numbering stands. Entries after “also recorded” stand apart in the source; their conditions may differ.

B1: Human WT: wild type human GCase (acid β-glucosidase, SEQ ID NO 2) expressed in Gba1−/− cells (protein, listed as Homo sapiens)
chain: ARPCIPKSFGYSSVVCVCNATYCDSFDPPTFPALGTFSRYESTRSGRRMELSMGPIQANHTGTGLLLTLQPEQKFQKVKGFGGAMTDAAALNILALSPPAQNLLLKSYFSEEGIGYNIIRVPMASCDFSIRTYTYADTPDDFQLHNFSLPEEDTKLKIPLIHRALQLAQRPVSLLASPWTSPTWLKTNGAVNGKGSLKGQPGDIYHQTWARYFVKFLDAYAEHKLQFWAVTAENEPSAGLLSGYPFQCLGFTPEHQRDFIARDLGPTLANSTHHNVRLLMLDDQRLLLPHWAKVVLTDPEAAKYVHGIAVHWYLDFLAPAKATLGETHRLFPNTMLFASEACVGSKFWEQSVRLGSWDRGMQYSHSIITNLLYHVVGWTDWNLALNPEGGPNWVRNFVDSPIIVDITKDTFYKQPMFYHLGHFSKFIPEGSQRVGLVASQKNDLDAVALMHPDGSAVVVVLNRSSKDVPLTIKDPAVGFLETISPGYSIHTYLWRRQ
B2: D399E: human GCase variant with charge conserved D399E (ESPIIV, SEQ ID NO 20) (protein)
chain: B1 chain with D399E
B3: TAD: human GCase with TKD (407-409) replaced by TAD (protein)
chain: B1 chain with K408A
B4: AAA: human GCase with triple alanine substitution of TKD (positions 407-409) (protein, listed as Homo sapiens)
chain: B1 chain with T407A, K408A, D409A
B5: AKA: human GCase with TKD (407-409) replaced by AKA (protein, listed as Homo sapiens)
chain: B1 chain with T407A, D409A
B6: AKD: human GCase with TKD (407-409) replaced by AKD, as named in figure legends (protein, UniProt P04062 40-536, looked up, variant T407A)
Lysosomal acid …: B1 chain with T407A

Experiments:
ldLIMP2 = target: T1, ldLIMP2 (Homo sapiens, UniProt Q14108); assay: Immunoprecipitation of alanine substituted GCases (TKD sequence) with ldLIMP2; type: binding; details: for binding of GCase variant to ldLIMP2, in words: GCase:LIMP2 1:1, immunoblot, FIG. 6
T1 construct: Purified luminal domain LIMP-2 (1d-LIMP2) was custom made (Sino Biological Inc., PRC.); purchased Sino Biological Inc
T1 sequence (Q14108 28-433 limits assumed): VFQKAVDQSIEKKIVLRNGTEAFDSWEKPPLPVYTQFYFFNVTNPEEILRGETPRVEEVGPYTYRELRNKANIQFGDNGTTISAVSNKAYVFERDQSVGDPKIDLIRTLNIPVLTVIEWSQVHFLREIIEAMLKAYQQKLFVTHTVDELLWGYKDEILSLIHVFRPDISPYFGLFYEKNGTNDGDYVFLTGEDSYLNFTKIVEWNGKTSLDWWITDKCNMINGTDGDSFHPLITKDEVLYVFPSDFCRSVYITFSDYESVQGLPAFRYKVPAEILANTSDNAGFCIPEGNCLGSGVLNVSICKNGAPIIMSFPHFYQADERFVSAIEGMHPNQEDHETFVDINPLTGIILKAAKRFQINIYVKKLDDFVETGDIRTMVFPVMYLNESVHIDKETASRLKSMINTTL
Source text: FIG. 6A-6E: Immunoprecipitation of the alanine substituted GCases in the TKD sequence with ldLIMP2. In panels shown in FIG. 6A to FIG. 6D, the lanes 1 through 6 correspond to the band densities indicated by the bars in FIG. 6E. […] The quantitative results are shown in (FIG. 6E) in which 1, 2, 3, and 4 correspond to WT, AAA, AKA, and AKD, respectively.
Immunoprecipitation of GCases with mutations in the TKD sequence: For immunoblots, Gba1 knockout mouse fibroblasts (null/null) were transfected with the GBA1 constructs (WT or mutants) and expressed for 5 days. The GCases from harvested cell lysates were purified using a GCase antibody affinity column (Dynabeads protein G crosslinked (BS3) with rabbit anti-human GCase antibody). The purified GCases were then mixed with LIMP2 (1:1), incubated (30 min.), and applied to another affinity column (Dynabeads protein G crosslinked (BS3) with rabbit anti-LIMP2 antibody). Aliquots of each step (loading, wash and eluent) were collected and analyzed on 12.5% SDS gels. Immunoblots were developed using anti-human GCase antibody and AP conjugated color development kits. Mock experiments with either non-LIMP2 proteins added or no GCases added, were used as control. The quantitations of these immunoprecipitation data were obtained from densitometry measurements of the gels. The no-LIMP-2 bars are the controls for comparison, since GCase was processed through all steps without LIMP-2 to account for any losses of GCase; About 50% of the GCase was lost during processing.

[1] = system: Gba1 null/null mouse fibroblasts; assay: Immunofluorescence co-localization of expressed GCase constructs (lysosome vs ER/Golgi); type: cell-based; details: for localization of GCase DSPIIV variants to the lysosome (Lamp1 / LIMP-2 co-localization), in words: transient transfection, FIG. 10A; for co-localization to / retention in the ER/Golgi, in words: calnexin or calreticulin
Source text: Immunofluorescence studies (IF): Mouse Gba1 null/null were used for the host cells for all transfection experiments. pCMV-AC-GFP Mammalian cell expression vector was used for expression of various GCases that included the TKD region (amino acids 407, 408 and 409) or the DSPIIV (SEQ ID NO 15) region (amino acids 399-404). Direct-labeled first antibodies were applied for IF detection; including anti-human GCase, -Calreticulin, -calnexin, -LIMP2, and -Lamp1. Lysotracker and ER tracker (Invitrogen) were also used as indicated. Analyses were done with a Zeiss AxioVert 200M with ApoTome. Co-localization analyses to obtain Pearson Indices were conducted using a module in the Axiovision 4.8 software.
Initial studies to localize the targeting peptide were conducted with GCase-GFP fusion constructs that had COOH-terminal deletions of GCase (FIG. 1). The constructs are designated as GCase-XX or XXX where the Xs represent the number of GCase amino acids deleted from the COOH-terminus. These constructs were transfected into and expressed in Gba1 null/null mouse fibroblasts using the CMV promoter (pCMV-AC-GFP or YFP) Immunofluorescence analyses using anti-human GCase IgG (green) and Lysotracker (Red) were used for colocalization of GCase to the lysosome (Red) or GCase (green) and Calreticulin or Calnexin (Red) for colocalization to the ER or Golgi (FIG. 2). […] Since LIMP-2 is the receptor for targeting of GCase to the lysosome, our working hypothesis was that the peptide sequence for binding of GCase to LIMP-2 was located within amino acids 347-422.

Gba1−/− cells = assay: Proportion of GCase protein in cells and media; type: cell-based, mouse; details: for % Secreted: ng GCase in media / (ng in media + ng in lysates) × 100
Source text: (§1) FIG. 11A-FIG. 11C: Secretion and retention of GCase with alanine variants in the TDK (FIG. 11A) or DSPIIV (SEQ ID NO 15) (FIG. 11B and FIG. 11C) sequences. FIG. 11A depicts activities in the media of Gba1−/− fibroblasts following transient transfections of each of the specified alanine substituted GCases in the TDK region. […] FIG. 11B depicts in the Left Panel: Activities in the media following transient transfections of various DSPIIV (SEQ ID NO 15) alanine substituted GCases and the % of GCase secreted. The latter was calculated as {ng GCase (in media)/[ng GCase (in media)+ng (GCase in lysates)]}×100 (also see Table 2). […] The transfections alone (Null+lipo) had no effect. […] FIG. 11C deicts in cellular lysate GCase activities from the various alanine substituted GCases in the DSPIIV (SEQ ID NO 15) sequence as indicated. […] The doubly alanine substituted GCase had little intracellular activity, i.e., nearly all the GCase was secreted into the media.

Gba1−/− fibroblasts = assay: GCase activity in media and cell lysates after transient transfection (secretion and retention); type: cell-based, mouse
Source text: as §1
(§2) Enzyme Assays: Cell pellets were homogenized in 0.25% Na-taurocholate and 0.25% Triton X-100. GCase activities were determined fluorometrically with 4 mM 4MU-Glc in 0.2M/0.1M citric-phosphate, pH 5.6 (18, 54)

[2] = CRIM specific activity of GCase variants (activity per cross-reacting immunological material); type: biochemical; details: for CRIM specific activity relative to WT (assigned 100%): FIG. 11A, 11B right panels
Description: as §2
Corresponding effects on the secretion of GCases from the cells containing various mutations in DSPIIVDITDK were found by assessing the activity of GCases in the media and cell lysate (FIG. 11 A-C). […] Using this assessment, the ratio of CRIM specific activities relative to WT (assigned 100%) for AAA, TAD, and AKA were 20%, 32%, and 49%, respectively (FIG. 11A, right panel), or that more GCase protein was required from the respective mutants to achieve the same enzyme activity as the WT. […] For the other mutants this ranged from 22-36%. This compares to ˜0% for the WT or D399E GCases Immunoaffinity anti-GCase column purification of the various GCases from media confirmed the excesses of these mutant GCases and the inability to detect WT or D399E GCases in media (data not shown).

| Molecule | % Secreted (Gba1−/− cells) [%] | GCase activity in the media / secretion, in words (Gba1−/− fibroblasts; media, FIG. 11A, 11B) | binding of GCase variant to ldLIMP2, in words (ldLIMP2) | CRIM specific activity relative to WT (assigned 100%) [2] [%] | lysosomal localization of GCases with alanine substitutions in the TKD sequence, in words ([1]; FIG. 5) | co-localization to / retention in the ER/Golgi, in words [1] | further results |
| --- | --- | --- | --- | --- | --- | --- | --- |
| B1 | ~0 | – | – | – | – | – | binding of GCase variant to ldLIMP2, in words (ldLIMP2; listed as WT): nearly complete binding; also recorded: bound similarly; localization of GCase DSPIIV variants to the lysosome (Lamp1 / LIMP-2 co-localization), in words ([1]; listed as WT): targeted to the lysosomes; also recorded: co-localization of GCase (FITC) with either Lamp 1 (Red) or LIMP-2; Total GCase (Gba1−/− cells; cellular + media, mean ± SD, n = 3): 23 ± 4 ng; Cellular GCase (Gba1−/− cells; total ng, mean ± SD, n = 3): 23 ± 4 ng; Media GCase (Gba1−/− cells; total ng, mean ± SD, n = 3): 0 ng |
| B2 | ~0 | no media activity above background | – | – | – | – | Pearson Indices for co-localization to the lysosome, in words ([1]; DSPIIV variants, FIG. 10B): did not alter the co-localization compared to WT; localization of GCase DSPIIV variants to the lysosome (Lamp1 / LIMP-2 co-localization), in words [1]: targeted to the lysosomes; localization of GCase DSPIIV variants to the lysosome (Lamp1 / LIMP-2 co-localization), in words ([1]; listed as E399): did not alter the cellular localization or secretion of GCase; localization of GCase DSPIIV variants to the lysosome (Lamp1 / LIMP-2 co-localization), in words ([1]; listed as ESPIIV): co-localization of GCase (FITC) with either Lamp 1 (Red) or LIMP-2; GCase activity in cell lysates, in words (Gba1−/− fibroblasts; cell lysates, FIG. 11C): equal intracellular activities; GCase activity in the media / secretion, in words (Gba1−/− fibroblasts; media, FIG. 11A, 11B, listed as E399): did not alter the cellular localization or secretion of GCase; GCase activity in the media / secretion, in words (Gba1−/− fibroblasts; media, FIG. 11A, 11B, listed as ESPIIV): did not alter secretion; CRIM specific activity, in words ([2]; FIG. 11B right panel): minor change in CRIM specific activity |
| B3 | – | – | bound similarly | 32 | – | – | increase of GCase activity in the media compared to WT (Gba1−/− fibroblasts; media, transient transfection, FIG. 11A, 11B): ~8 fold |
| B4 | – | the least | essentially no binding; also recorded: did not bind | 20 | no lysosomal localization | majority of the enzymes co-localized to the ER/Golgi; also recorded: abundant colocalization to the ER | – |
| B5 | – | – | much less bound | 49 | less lysosomal localization | majority of the enzymes co-localized to the ER/Golgi | binding of GCase variant to ldLIMP2 (ldLIMP2; GCase on beads vs wash, FIG. 6C): about 50% |
| B6 | – | greatest increases | somewhat less binding | – | – | – | enzyme localized to the lysosome ([1]; TKD sequence variants, FIG. 5): about 50% |
